# From publication doi:10.1101/2022.01.27.478073 (bioRxiv, 2022)
# T1: His-AtNRT1.4 (Arabidopsis, UniProt Q9SZY4 1-577)
# T1 sequence (looked up): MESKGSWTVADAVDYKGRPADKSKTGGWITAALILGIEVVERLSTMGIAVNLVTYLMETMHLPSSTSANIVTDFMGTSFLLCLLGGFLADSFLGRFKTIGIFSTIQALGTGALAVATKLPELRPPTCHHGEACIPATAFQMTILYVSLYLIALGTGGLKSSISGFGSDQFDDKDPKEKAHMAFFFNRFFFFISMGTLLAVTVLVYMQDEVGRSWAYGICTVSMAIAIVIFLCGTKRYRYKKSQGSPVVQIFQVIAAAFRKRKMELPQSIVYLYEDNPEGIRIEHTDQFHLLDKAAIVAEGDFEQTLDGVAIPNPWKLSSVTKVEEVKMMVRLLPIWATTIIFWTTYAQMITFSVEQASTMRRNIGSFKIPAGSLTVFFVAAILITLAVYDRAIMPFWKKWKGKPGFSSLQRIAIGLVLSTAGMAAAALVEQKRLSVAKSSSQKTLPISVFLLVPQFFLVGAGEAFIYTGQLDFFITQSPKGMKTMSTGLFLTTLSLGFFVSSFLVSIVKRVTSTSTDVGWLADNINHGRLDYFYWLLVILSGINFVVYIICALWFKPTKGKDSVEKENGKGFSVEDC
# B1: GST-AtGPA1 (natural protein, Arabidopsis, UniProt P18064 1-383, looked up)
# chain: MGLLCSRSRHHTEDTDENTQAAEIERRIEQEAKAEKHIRKLLLLGAGESGKSTIFKQIKLLFQTGFDEGELKSYVPVIHANVYQTIKLLHDGTKEFAQNETDSAKYMLSSESIAIGEKLSEIGGRLDYPRLTKDIAEGIETLWKDPAIQETCARGNELQVPDCTKYLMENLKRLSDINYIPTKEDVLYARVRTTGVVEIQFSPVGENKKSGEVYRLFDVGGQRNERRKWIHLFEGVTAVIFCAAISEYDQTLFEDEQKNRMMETKELFDWVLKQPCFEKTSFMLFLNKFDIFEKKVLDVPLNVCEWFRDYQPVSSGKQEIEHAYEFVKKKFEELYYQNTAPDRVDRVFKIYRTTALDQKLVKKTFKLVDETLRRRNLLEAGLL
# Target: T1, His-AtNRT1.4
# Test: pull-down
binder,measurement,value
B1,binding result,binds
